Results on one substance are retold here after PMC5940917.

In experiment [1] the target is rat ASIC1a/2a heteromeric channel stably expressed in CHO cells (rat) (UniProt P55926).
Experiment [2] has the same target. This is another data set of the same source.
For experiment [3] the target is unchanged. This is another data set of the same source.

UniProt P55926, sequence (P55926 whole entry, chain 1 of 2): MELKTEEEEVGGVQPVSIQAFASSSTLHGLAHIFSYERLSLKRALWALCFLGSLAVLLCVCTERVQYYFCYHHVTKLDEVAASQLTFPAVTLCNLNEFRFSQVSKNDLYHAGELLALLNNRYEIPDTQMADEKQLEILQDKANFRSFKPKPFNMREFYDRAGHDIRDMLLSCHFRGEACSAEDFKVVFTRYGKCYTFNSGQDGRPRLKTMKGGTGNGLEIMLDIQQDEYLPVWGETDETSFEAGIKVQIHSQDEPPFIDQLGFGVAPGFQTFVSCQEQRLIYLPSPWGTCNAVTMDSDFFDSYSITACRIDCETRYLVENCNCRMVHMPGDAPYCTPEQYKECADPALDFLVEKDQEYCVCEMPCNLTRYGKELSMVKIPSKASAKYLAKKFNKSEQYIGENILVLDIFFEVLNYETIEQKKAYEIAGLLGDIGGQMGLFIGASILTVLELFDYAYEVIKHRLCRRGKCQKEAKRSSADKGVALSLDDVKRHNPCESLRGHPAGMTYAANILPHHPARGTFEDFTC
UniProt P55926, sequence (P55926 other isoform, or with tags, fused parts or gaps, chain 2 of 2): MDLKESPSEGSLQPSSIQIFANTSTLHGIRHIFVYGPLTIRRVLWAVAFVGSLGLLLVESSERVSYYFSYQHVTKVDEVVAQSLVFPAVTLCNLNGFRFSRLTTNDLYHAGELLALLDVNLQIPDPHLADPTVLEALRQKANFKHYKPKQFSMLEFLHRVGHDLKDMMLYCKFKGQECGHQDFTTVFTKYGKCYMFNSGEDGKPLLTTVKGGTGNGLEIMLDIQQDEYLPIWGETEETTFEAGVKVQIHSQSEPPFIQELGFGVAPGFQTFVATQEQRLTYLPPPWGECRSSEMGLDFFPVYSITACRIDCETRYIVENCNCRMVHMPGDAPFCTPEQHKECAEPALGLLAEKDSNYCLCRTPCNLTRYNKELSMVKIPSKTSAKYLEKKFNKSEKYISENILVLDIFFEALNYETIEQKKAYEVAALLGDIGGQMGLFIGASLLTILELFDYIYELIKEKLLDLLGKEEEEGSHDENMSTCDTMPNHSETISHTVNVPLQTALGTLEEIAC

Substance “Psalmotoxin (PcTx1) (from UniProt P60514 1-40) (peptide)” returned a whole-cell patch clamp on CHO cells: inhibition of pH6.0-induced current at conditioning pH 7.0, 1-300 nM PcTx1 (inhibition incomplete, plateau ~75%) in experiment [1] of 2.9 nM. For the same substance, in experiment [2], the current clamp on CHO cells: potentiation of pH6.8-induced membrane depolarization at conditioning pH 7.4, 1-300 nM PcTx1 was determined as 56.1 nM and the whole-cell patch clamp on CHO cells: potentiation of pH6.8-induced current at conditioning pH 7.4, 1-300 nM PcTx1 was 124 nM. Moreover, the threshold concentration of PcTx1 for potentiation of pH6.8-induced responses at conditioning pH 7.4 (wash-off experiments; CHO cells, rat and mouse cortical neurons) in experiment [3] is below 10 nM.
